Results on three molecules are retold here after US20250066456A1 (NOVAVAX, published 2025).

Usually Kd stands for the equilibrium constant for the complex coming apart. Usually EC50 stands for the concentration giving half of the maximal effect. One may read the IC50 as the concentration at which inhibition is half-maximal.

The target in assay [1] is BV2443 (recombinant CoV S glycoprotein, Gamma) (SARS-CoV-2, UniProt P0DTC2 14-1273).
Assay [2] has as its target BV2465 (recombinant CoV S glycoprotein, Delta) (SARS-CoV-2, UniProt P0DTC2 14-1273). In words: ELISA, plate coated with rS, serial dilution of the mAb, anti-mouse HRP, A450. On the technique in general: ELISA stands for enzyme-linked immunosorbent assay.
In assay [3] the target is BV2438 (recombinant CoV S glycoprotein, Beta) (SARS-CoV-2, UniProt P0DTC2 14-1273). Described as above.
Assay [4] deals with BV2425 (recombinant CoV S glycoprotein, Alpha) (SARS-CoV-2, UniProt P0DTC2 14-1273). Described as above.
Assay [5] concerns the target BV2509 (recombinant CoV S glycoprotein, BA.1) (SARS-CoV-2, UniProt P0DTC2 14-1273). The description is as above.
The target in assay [6] is BV2589 (recombinant CoV S glycoprotein, BQ.1.1) (SARS-CoV-2, UniProt P0DTC2 14-1273). In words: ELISA on coated rS.
Assay [7] addresses BV2562 (recombinant CoV S glycoprotein, BA.4.6) (SARS-CoV-2, UniProt P0DTC2 14-1273).
The target of assay [8] is BV2541 (recombinant CoV S glycoprotein, BA.4) (SARS-CoV-2, UniProt P0DTC2 14-1273).
Assay [9] deals with Delta Plus CoV S glycoprotein (recombinant) (Severe acute respiratory syndrome …, UniProt P0DTC2 14-1273). In words: hACE2 receptor inhibition ELISA on coated rS; competitor hACE2-His.

B1: 425.6 (antibody, V domains shown)
VH: VQLKQSGPSLVQPSQSLSITCTVSGFSLTSYGIHWVRQSPGKGLEWLGVIWRGGSTDYNAAFMSRLTITKDNSKSQVFFKMNSLQADDTAIYYCATHTEGDDVDYWGQGTSVTVSS
VL: QIVLTQSPAIMSVSPGEKVTMTCSASSTMSFMYWYQQKPGSSPRLLIYDTSNLASGVPVRFSGSGSGTSYSLTISRVEAEDAATYYCQQWNTYPLTFGAGTKLELKR
Turning to B1, the equilibrium dissociation constant (Kd) in assay [1] came to 3.52 pM. The concentration giving a half-maximal response (EC50) in assay [2] was 0.012 µg/mL; in [3] it was 0.011 µg/mL; in assay [4] it was 0.011 µg/mL; in [5] it was more than 1 µg/mL.

B2: 322.3 (antibody, V domains shown)
VH: RVQLQQSGPELVKPGASVTISCKASGYIFTSDYIHWVKQRPGQGPEWIGWIYPGNINTKYNEKFKGKATLTADKSSSTAYMQLSSLTSEDSAVYFCARDDGNLYYYAMDYWGQGTSVTVSS
VL: NIVLTQSPASLAVSLGQRATISCRASESVDSYGSSFMHWYQQKPGQPPKLLIYLASNLESGVPARFSGSGSRTDFTLTIDPVEADDAATYYCQQNNEDPRTFGGGTKLEIK
For the molecule B2, in assay [6], the 50% effective concentration (EC50) is 0.077 µg/mL.

B3: 35.13 (antibody, V domains shown)
VH: QVQLQQSGAELGKPGASVKLSCRASGYTFTRYYIYWVKQRPGQGLEWIGEINPSNGDTHFNEKFKTKATLTVDKSSSSAHIHLTSLTSEDSAVYYCSIHAYSFDFWGQGTTLTVSS
VL: EIQMTQSPSSMSASLGDRITITCQATQDIVKNLNWYQQKPGKPPSFLIYHATELAKGVPSRFSGSGSGSDYSLTISNLESEDFADYYCLQFYDFPFTFGAGTKLELKR
Take B3: the IC50 in [7] is more than 3 µg/mL; in assay [8] it was more than 3 µg/mL; in assay [9], 0.065 µg/mL.
